Assay results published in patent US11994512B2, “Single-cell genomic methods to generate ex vivo cell systems that recapitulate in vivo biology with improved fidelity” (Massachusetts Institute of Technology, priority 2018, dated 2024).

B1: O88803 (protein, UniProt O88803 1-151, looked up)
chain: MIPTTILISAALLSSALAGPWANICASKSSNEIRTCDSYGCGQYSAQRTQRHHPGVDVLCSDGSVVYAPFTGKIVGQEKPYRNKNAINDGIRLSGRGFCVKIFYIKPIKYKGSIKKGEKLGTLLPLQKIYPGIQSHVHVENCDSSDPTAYL
modifications: full-length
B2: P06728 (protein, UniProt P06728 1-395, looked up)
chain: MFLKAAVLTLALVAITGTRAEVTSDQVANVVWDYFTQLSNNAKEAVEQFQKTDVTQQLSTLFQDKLGDASTYADGVHNKLVPFVVQLSGHLAQETERVKEEIKKELEDLRDRMMPHANKVTQTFGENMQKLQEHLKPYAVDLQDQINTQTQEMKLQLTPYIQRMQTTIKENVDNLHTSMMPLATNLKDKFNRNMEELKGHLTPRANELKATIDQNLEDLRRSLAPLTVGVQEKLNHQMEGLAFQMKKNAEELQTKVSAKIDQLQKNLAPLVEDVQSKVKGNTEGLQKSLEDLNRQLEQQVEEFRRTVEPMGEMFNKALVQQLEQFRQQLGPNSGEVESHLSFLEKSLREKVNSFMSTLEKKGSPDQPQALPLPEQAQEQAQEQAQEQVQPKPLES
modifications: full-length
B3: P0C027 (protein, UniProt P0C027 1-164, looked up)
chain: MKCKPNQTRTYDPEGFKKRAACLCFRSEREDEVLLVSSSRYPDRWIVPGGGMEPEEEPDGAAVREVYEEAGVKGKLGRLLGVFEQNQDRKHRTYVFVLTVTELLEDWEDSVSIGRKREWFKIEDAIKVLQCHKPVHAEYLEKLKLGGSPTNGNSAAPSPPESEP
modifications: full-length
B4: P03958 (protein, UniProt P03958 1-352, looked up)
chain: MAQTPAFNKPKVELHVHLDGAIKPETILYFGKKRGIALPADTVEELRNIIGMDKPLSLPGFLAKFDYYMPVIAGCREAIKRIAYEFVEMKAKEGVVYVEVRYSPHLLANSKVDPMPWNQTEGDVTPDDVVDLVNQGLQEGEQAFGIKVRSILCCMRHQPSWSLEVLELCKKYNQKTVVAMDLAGDETIEGSSLFPGHVEAYEGAVKNGIHRTVHAGEVGSPEVVREAVDILKTERVGHGYHTIEDEALYNRLLKENMHFEVCPWSSYLTGAWDPKTTHAVVRFKNDKANYSLNTDDPLIFKSTLDTDYQMTKKDMGFTEEEFKRLNINAAKSSFLPEEEKKELLERLYREYQ
modifications: full-length
B5: P11725 (protein, UniProt P11725 1-354, looked up)
chain: MLSNLRILLNNAALRKGHTSVVRHFWCGKPVQSQVQLKGRDLLTLKNFTGEEIQYMLWLSADLKFRIKQKGEYLPLLQGKSLGMIFEKRSTRTRLSTETGFALLGGHPSFLTTQDIHLGVNESLTDTARVLSSMTDAVLARVYKQSDLDTLAKEASIPIVNGLSDLYHPIQILADYLTLQEHYGSLKGLTLSWIGDGNNILHSIMMSAAKFGMHLQAATPKGYEPDPNIVKLAEQYAKENGTKLSMTNDPLEAARGGNVLITDTWISMGQEDEKKKRLQAFQGYQVTMKTAKVAASDWTFLHCLPRKPEEVDDEVFYSPRSLVFPEAENRKWTIMAVMVSLLTDYSPVLQKPKF
modifications: full-length
B6: P04184 (protein, UniProt P04184 1-233, looked up)
chain: MSYINLPTVLPSSPSKTRGQIQVILGPMFSGKSTELMRRVRRFQIAQYKCLVIKYAKDTRYSNSFSTHDRNTMDALPACMLRDVTQESLGVAVIGIDEGQFFPDIVDFCEMMANEGKTVIVAALDGTFQRKAFGSILNLVPLAESVVKLTAVCMECFREAAYTKRLGLEKEVEVIGGADKYHSVCRLCYFKKSSAQTAGSDNKNCLVLGQPGEALVVRKLFASQQVLQYNSAN
modifications: full-length
B7: P18242 (protein, UniProt P18242 1-410, looked up)
chain: MKTPGVLLLILGLLASSSFAIIRIPLRKFTSIRRTMTEVGGSVEDLILKGPITKYSMQSSPKTTEPVSELLKNYLDAQYYGDIGIGTPPQCFTVVFDTGSSNLWVPSIHCKILDIACWVHHKYNSDKSSTYVKNGTSFDIHYGSGSLSGYLSQDTVSVPCKSDQSKARGIKVEKQIFGEATKQPGIVFVAAKFDGILGMGYPHISVNNVLPVFDNLMQQKLVDKNIFSFYLNRDPEGQPGGELMLGGTDSKYYHGELSYLNVTRKAYWQVHMDQLEVGNELTLCKGGCEAIVDTGTSLLVGPVEEVKELQKAIGAVPLIQGEYMIPCEKVSSLPTVYLKLGGKNYELHPDKYILKVSQGGKTICLSGFMGMDIPPPSGPLWILGDVFIGSYYTVFDRDNNRVGFANAVVL
modifications: full-length
B8: P02772 (protein, UniProt P02772 1-605, looked up)
chain: MKWITPASLILLLHFAASKALHENEFGIASTLDSSQCVTEKNVLSIATITFTQFVPEATEEEVNKMTSDVLAAMKKNSGDGCLESQLSVFLDEICHETELSNKYGLSGCCSQSGVERHQCLLARKKTAPASVPPFQFPEPAESCKAHEENRAVFMNRFIYEVSRRNPFMYAPAILSLAAQYDKVVLACCKADNKEECFQTKRASIAKELREGSMLNEHVCSVIRKFGSRNLQATTIIKLSQKLTEANFTEIQKLALDVAHIHEECCQGNSLECLQDGEKVMTYICSQQNILSSKIAECCKLPMIQLGFCIIHAENGVKPEGLSLNPSQFLGDRNFAQFSSEEKIMFMASFLHEYSRTHPNLPVSVILRIAKTYQEILEKCSQSGNLPGCQDNLEEELQKHIEESQALSKQSCALYQTLGDYKLQNLFLIGYTRKAPQLTSAELIDLTGKMVSIASTCCQLSEEKWSGCGEGMADIFIGHLCIRNEASPVNSGISHCCNSSYSNRRLCITSFLRDETYAPPPFSEDKFIFHKDLCQAQGKALQTMKQELLINLVKQKPELTEEQLAAVTADFSGLLEKCCKAQDQEVCFTEEGPKLISKTRDALGV
modifications: full-length

Test system: intracellular proteome of ENR+CD and ENR organoids
Assay: LC-MS/MS TMT proteomics of ENR+CD versus ENR organoids
Format: cell-based, C57BL/6 mice
Settings: for Average logFC / M1-1 Log2 Median Normalized / M1-2 Log2 Median Normalized / M2-1 Log2 Median Normalized / M2-2 Log2 Median Normalized: protein abundance, ENR+CD versus ENR organoids; for Average logFC: aggregate of the four sample pairs; for M1-1 Log2 Median Normalized: replicate M1-1; for M1-1 Log2 Median Normalized / M1-2 Log2 Median Normalized / M2-1 Log2 Median Normalized / M2-2 Log2 Median Normalized: log2 ratio; for M1-2 Log2 Median Normalized: replicate M1-2; for M2-1 Log2 Median Normalized: replicate M2-1; for M2-2 Log2 Median Normalized: replicate M2-2; for change: up = enriched in ENR+CD, down = enriched in ENR, FDR<0.05 and log fold change cut-off
Excerpt: Because PCs are highly secretory, protein-rich cells, Applicants sought to assess the total intracellular proteome between conditions through liquid chromatography mass spectrometry (LC-MS/MS)-based proteomics. Applicants quantified relative protein abundance across eight samples using isobaric mass tag labeling from four ENR and four ENR+CD samples (M1-1 through M2-2, first digit denotes biological donor, second digit denotes technical replicate) (FIG. 3A). Samples were processed and analyzed in a single 10-plex by LC-MS/MS (FIG. 9A).
To affirm the reproducibility of the associated proteins in the ENR+CD-enriched proteome, Applicants performed relative quantification within differentiation sets.
Mass spectrometry proteomics sample preparation, sequencing, and quantification. Organoid cell pellets were isolated from Matrigel with mechanical dissociation and washed (cold PBS 5X) to remove residual extracellular protein. Proteins were extracted from cell pellets with 8 M urea (Sigma), reduced with 5 mM DTT (Thermo Fisher Pierce) for 45 minutes, alkylated with 10 mM IAA (Sigma) for 45 minutes in the dark, and double digested with both Lysyl Endopeptidase “LysC” (Wako) and trypsin (Promega) overnight at RT. A small aliquot of cellular lysate was removed from each sample for protein quantification via the Pierce™ BCA Protein Assay Kit (Pierce). After proteolytic digestion, the samples were quenched using formic acid to a final concentration of 1.0% and subsequently desalted on 10 mg OASIS HLB solid phase columns (Waters).
The peptides were labeled with TMT-10 isobaric mass tag reagent according to manufacturer's instructions (ThermoFisher Scientific). The peptides were labeled at a 1:8 ratio of peptide to TMT reagent, followed by 1-hour incubation at RT with bench top shaking at 850 rpm. After incubation, a […] of labeled tryptic peptide was removed from each labeled condition, desalted with C18 stage tips, and analyzed via LC-MS/MS using a Thermo Fisher Q Exactive Plus Hybrid Mass Spectrometer (QE-Plus) coupled to a Thermo Fisher EASY-nLC 1000 liquid chromatograph to ensure isobaric label incorporation >95%. An additional 1.0 μg of labeled tryptic peptide was removed from each channel, mixed together, desalted on a C18 stage tip, and analyzed via LC-MS to ensure equal relative protein loads. During these quality control steps, the labeled peptides were stored, unquenched at −80° C.

| Molecule | Average logFC | M1-1 Log2 Median Normalized | M1-2 Log2 Median Normalized | M2-1 Log2 Median Normalized | M2-2 Log2 Median Normalized | change |
| --- | --- | --- | --- | --- | --- | --- |
| B1 | 1.443 | 1.692 | 1.063 | 1.4425 | 1.463 | up |
| B2 | −1.57 | −1.343 | −2.171 | −1.8605 | −0.907 | down |
| B3 | 1.134 | 1.368 | 1.133 | 0.8135 | 1.192 | up |
| B4 | 1.34 | 1.339 | 0.074 | 1.5985 | 1.501 | up |
| B5 | −1.477 | −1.478 | −1.458 | −2.2695 | −1.132 | down |
| B6 | −1.187 | −1.268 | −1.033 | −1.0175 | −1.428 | down |
| B7 | 1.296 | 1.508 | 1.211 | 0.9875 | 1.479 | up |
| B8 | −1.438 | −1.616 | −1.696 | −1.1235 | −1.316 | down |
